Data reported in publication PMC10397247.

Experiments:
[1] = molecular target: T1, 4H454-bA; experiment: two-hybrid library CCNG1;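 also: natural log of median RNA to DNA barcode read ratio; higher means stronger binding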
T1 chain: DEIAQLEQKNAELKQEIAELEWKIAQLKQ

[2] = molecular target: T2, 4H568-bA; experiment: two-hybrid library CCNG1;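 also: natural log of median RNA to DNA barcode read ratio; higher means stronger binding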
T2 chain: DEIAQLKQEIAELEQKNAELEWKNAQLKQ

[3] = molecular target: T3, 4H607-bA; experiment: two-hybrid library CCNG1;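 also: natural log of median RNA to DNA barcode read ratio; higher means stronger binding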
T3 chain: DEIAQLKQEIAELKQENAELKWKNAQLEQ

[4] = molecular target: T4, 4H687-bA; experiment: two-hybrid library CCNG1;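 also: natural log of median RNA to DNA barcode read ratio; higher means stronger binding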
T4 chain: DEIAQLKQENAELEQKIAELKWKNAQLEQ

[5] = molecular target: T5, 4H717-bA; experiment: two-hybrid library CCNG1;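 also: natural log of median RNA to DNA barcode read ratio; higher means stronger binding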
T5 chain: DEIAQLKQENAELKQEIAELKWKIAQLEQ

[6] = molecular target: T6, 4H72-bA; experiment: two-hybrid library CCNG1;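 also: natural log of median RNA to DNA barcode read ratio; higher means stronger binding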
T6 chain: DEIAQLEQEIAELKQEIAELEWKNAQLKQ

[7] = molecular target: T7, 4H754-bA; experiment: two-hybrid library CCNG1
T7 chain: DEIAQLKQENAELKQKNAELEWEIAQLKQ

[8] = molecular target: T8, 4H797-bA; experiment: two-hybrid library CCNG1
T8 chain: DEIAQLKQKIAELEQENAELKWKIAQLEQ

[9] = molecular target: T9, 4H883-bA; experiment: two-hybrid library CCNG1
T9 chain: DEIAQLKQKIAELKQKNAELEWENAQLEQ

[10] = molecular target: T10, 4H908-bA; experiment: two-hybrid library CCNG1
T10 chain: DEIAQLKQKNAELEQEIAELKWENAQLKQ

[11] = molecular target: T11, 4H918-bA; experiment: two-hybrid library CCNG1
T11 chain: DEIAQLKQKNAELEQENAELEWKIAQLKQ

[12] = molecular target: T12, 4H953-bA; experiment: two-hybrid library CCNG1
T12 chain: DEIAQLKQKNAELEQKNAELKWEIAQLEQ

[13] = molecular target: T13, 4H967-bA; experiment: two-hybrid library CCNG1
T13 chain: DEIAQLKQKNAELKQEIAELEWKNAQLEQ

[14] = molecular target: T14, APC5009-AA; experiment: two-hybrid library CCmax
T14 chain: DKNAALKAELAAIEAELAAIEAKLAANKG

[15] = molecular target: T15, APC542-AA; experiment: two-hybrid library CCmax; conditions: mean of both orientations
T15 chain: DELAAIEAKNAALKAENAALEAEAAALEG

[16] = molecular target: T16, APC5531-AA; experiment: two-hybrid library CCmax; conditions: mean of both orientations
T16 chain: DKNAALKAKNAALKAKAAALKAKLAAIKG

[17] = molecular target: T17, APC6088-AA; experiment: two-hybrid library CCmax; conditions: mean of both orientations
T17 chain: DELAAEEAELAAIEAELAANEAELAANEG

[18] = molecular target: T18, APC7524-AA; experiment: two-hybrid library CCmax; conditions: mean of both orientations
T18 chain: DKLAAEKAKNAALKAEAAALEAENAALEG

[19] = molecular target: T19, APC8401-AA; experiment: two-hybrid library CCmax; conditions: mean of both orientations
T19 chain: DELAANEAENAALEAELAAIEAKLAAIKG

[20] = molecular target: T20, APC8516-AA; experiment: two-hybrid library CCmax; conditions: mean of both orientations
T20 chain: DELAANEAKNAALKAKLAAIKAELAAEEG

[21] = molecular target: T21, APC9141-AA; experiment: two-hybrid library CCmax; conditions: mean of both orientations
T21 chain: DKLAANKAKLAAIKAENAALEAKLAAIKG

[22] = molecular target: T22, APC9182-AA; experiment: two-hybrid library CCmax; conditions: mean of both orientations
T22 chain: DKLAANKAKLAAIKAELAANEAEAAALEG

[23] = molecular target: T23, APC9291-AA; experiment: two-hybrid library CCmax; conditions: mean of both orientations
T23 chain: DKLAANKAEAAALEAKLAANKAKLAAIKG

[24] = molecular target: T24, APC9806-AA; experiment: two-hybrid library CCmax; conditions: mean of both orientations
T24 chain: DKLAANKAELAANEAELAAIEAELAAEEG

[25] = molecular target: T25, 4H2961-AA; experiment: two-hybrid library CCmax; conditions: mean of both orientations
T25 chain: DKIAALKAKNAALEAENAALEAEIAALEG

[26] = molecular target: T26, 4H3049-AA; experiment: two-hybrid library CCmax; conditions: mean of both orientations
T26 chain: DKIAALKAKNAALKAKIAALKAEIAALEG

[27] = molecular target: T27, 4H3094-AA; experiment: two-hybrid library CCmax; conditions: mean of both orientations
T27 chain: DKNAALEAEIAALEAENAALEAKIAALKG

[28] = molecular target: T28, 4H324-AA; experiment: two-hybrid library CCmax; conditions: mean of both orientations
T28 chain: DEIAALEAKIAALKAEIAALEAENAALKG

[29] = molecular target: T29, 4H341-AA; experiment: two-hybrid library CCmax; conditions: mean of both orientations
T29 chain: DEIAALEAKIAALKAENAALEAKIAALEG

[30] = molecular target: T30, 4H3449-AA; experiment: two-hybrid library CCmax; conditions: mean of both orientations
T30 chain: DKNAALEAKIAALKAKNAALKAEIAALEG

[31] = molecular target: T31, 4H3619-AA; experiment: two-hybrid library CCmax; conditions: mean of both orientations
T31 chain: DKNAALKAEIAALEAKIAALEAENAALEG

[32] = molecular target: T32, 4H3629-AA; experiment: two-hybrid library CCmax; conditions: mean of both orientations
T32 chain: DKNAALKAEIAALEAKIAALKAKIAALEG

[33] = molecular target: T33, 4H3777-AA; experiment: two-hybrid library CCmax; conditions: mean of both orientations
T33 chain: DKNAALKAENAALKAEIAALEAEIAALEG

[34] = molecular target: T34, 4H380-AA; experiment: two-hybrid library CCmax; conditions: mean of both orientations
T34 chain: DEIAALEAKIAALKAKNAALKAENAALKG

[35] = molecular target: T35, 4H3915-AA; experiment: two-hybrid library CCmax; conditions: mean of both orientations
T35 chain: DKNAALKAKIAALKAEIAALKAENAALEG

[36] = molecular target: T36, 4H3974-AA; experiment: two-hybrid library CCmax; conditions: mean of both orientations
T36 chain: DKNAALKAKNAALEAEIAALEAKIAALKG

[37] = molecular target: T37, 4H432-AA; experiment: two-hybrid library CCmax; conditions: mean of both orientations
T37 chain: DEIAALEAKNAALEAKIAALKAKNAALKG

[38] = molecular target: T38, 4H446-AA; experiment: two-hybrid library CCmax; conditions: mean of both orientations
T38 chain: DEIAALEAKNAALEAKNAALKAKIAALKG

[39] = molecular target: T39, 4H63-AA; experiment: two-hybrid library CCmax; conditions: mean of both orientations
T39 chain: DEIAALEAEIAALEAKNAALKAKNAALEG

Q: With DEIAQLEQKNAELKQEIAELEWKIAQLKQ [4H454-bA] as the binder, how does the interaction score [1] read?
A: 1.86

Q: And the interaction score [2]?
A: -0.589

Q: What about the interaction score [3] of the same binder?
A: -0.773

Q: What about the interaction score [4] of the same binder?
A: 1.48

Q: And the interaction score [5]?
A: 0.262

Q: What about the interaction score [6] of the same binder?
A: -0.678

Q: And the interaction score [7]?
A: -0.711

Q: What about the interaction score [8] of the same binder?
A: -1.06

Q: And the interaction score [9]?
A: -0.0808

Q: And the interaction score [10]?
A: -0.182

Q: And the interaction score [11]?
A: -0.912

Q: And the interaction score [12]?
A: 0.62

Q: What about the interaction score [13] of the same binder?
A: -0.131

Q: What does the source list for DKNAALKAELAAIEAELAAIEAKLAANKG [APC5009-AA]?
A: interaction score [14]: -1.19; interaction score [15]: -1.44; interaction score [16]: -0.726; interaction score [17]: -1.37; interaction score [18]: -1.47; interaction score [19]: -1.26; interaction score [20]: -1.31; interaction score [21]: -1.42; interaction score [22]: -1.29; interaction score [23]: -1.51; interaction score [24]: -1.58

Q: How did the interaction score [25] turn out when DKIAALKAKNAALEAEIAALEAENAALEG [4H2947-AA] was run?
A: -2.03

Q: What about the interaction score [26] of the same binder?
A: -0.853

Q: What about the interaction score [27] of the same binder?
A: 1.06

Q: What about the interaction score [28] of the same binder?
A: -1.49

Q: And the interaction score [29]?
A: -1.12

Q: What about the interaction score [30] of the same binder?
A: -0.39

Q: And the interaction score [31]?
A: -1.85

Q: And the interaction score [32]?
A: -1.56

Q: And the interaction score [33]?
A: -1.93

Q: And the interaction score [34]?
A: -1.17

Q: And the interaction score [35]?
A: -1.59

Q: And the interaction score [36]?
A: -1.36

Q: What about the interaction score [37] of the same binder?
A: 2.09

Q: What about the interaction score [38] of the same binder?
A: -0.0537

Q: What about the interaction score [39] of the same binder?
A: -1.61
